Test results taken from article PMC6241527 (Science (New York, N.Y.), 2018).

How the values were obtained:
[1] = target: T1, H1 hemagglutinin (A/Solomon Islands/3/06) (influenza A virus (A/Solomon …)); test: crystal structure
T1 chain 1: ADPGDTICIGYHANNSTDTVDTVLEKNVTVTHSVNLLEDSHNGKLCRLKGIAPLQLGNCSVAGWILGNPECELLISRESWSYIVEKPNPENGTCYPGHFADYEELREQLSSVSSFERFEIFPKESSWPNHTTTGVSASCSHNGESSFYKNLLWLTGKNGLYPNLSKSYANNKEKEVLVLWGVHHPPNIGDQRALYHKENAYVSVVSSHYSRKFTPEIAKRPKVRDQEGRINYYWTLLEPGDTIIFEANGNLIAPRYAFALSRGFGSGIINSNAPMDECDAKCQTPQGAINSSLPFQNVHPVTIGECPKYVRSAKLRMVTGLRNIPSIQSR
T1 chain 2: not shown

[2] = target: T2, influenza B hemagglutinin (B/Brisbane/60/08) (influenza B virus (B/Brisbane/60/08), N-linked glycans at N301 and N330 (HA1)); test: crystal structure
T2 chain 1: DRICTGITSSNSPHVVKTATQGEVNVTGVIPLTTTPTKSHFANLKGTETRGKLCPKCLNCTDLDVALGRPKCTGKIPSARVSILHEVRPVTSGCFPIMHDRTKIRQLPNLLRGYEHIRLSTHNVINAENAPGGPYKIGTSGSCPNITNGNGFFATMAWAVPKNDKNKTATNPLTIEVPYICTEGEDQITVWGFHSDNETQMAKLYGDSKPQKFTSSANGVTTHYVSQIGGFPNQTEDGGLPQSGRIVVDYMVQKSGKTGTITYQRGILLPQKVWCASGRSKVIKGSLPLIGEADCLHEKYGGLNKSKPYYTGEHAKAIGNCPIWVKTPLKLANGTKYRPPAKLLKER
T2 chain 2: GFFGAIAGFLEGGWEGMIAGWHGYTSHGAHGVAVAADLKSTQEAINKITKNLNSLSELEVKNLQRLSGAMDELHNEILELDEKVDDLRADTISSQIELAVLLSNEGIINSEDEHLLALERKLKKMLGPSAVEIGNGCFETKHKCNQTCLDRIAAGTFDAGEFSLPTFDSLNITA

[3] = target: T3, H1 hemagglutinin (A/Brisbane/59/07) (Influenza A virus …); test: cell-based or functional assay
[4] = target: T3, H1 hemagglutinin (A/Brisbane/59/07)

B1: single-domain antibody SD38 (VHH)
VHH: EVQLVESGGGLVQPGGSLRLSCAVSISIFDIYAMDWYRQAPGKQRDLVATSFRDGSTNYADSVKGRFTISRDNAKNTLYLQMNSLKPEDTAVYLCHVSLYRDPLGVAGGMGVYWGKGALVTVSS
[1]
  stoichiometry N: 3 sdAbs per HA trimer

B2: single-domain antibody SD83 (VHH)
VHH: EVQLVESGGGLVQPGGSLRLSCAATGFTLENKAIGWFRQTPGSEREGVLCISKSGSWTYYTDSMRGRFTISRDNAENTVYLQMDSLKPEDTAVYYCATTTAGGGLCWDGTTFSRLASSWGQGTQVTVSS
[2]
  stoichiometry N: 3 sdAbs per HA trimer

B3: single-domain antibody SD36 (VHH)
VHH: EVQLVESGGGLVQAGGSLKLSCAASGRTYAMGWFRQAPGKEREFVAHINALGTRTYYSDSVKGRFTISRDNAKNTEYLEMNNLKPEDTAVYYCTAQGQWRAAPVAVAAEYEFWGQGTQVTVSS
[3]
  in vitro neutralisation of the corresponding virus (A/Brisbane/59/07), IC50: > 1000 nM
[4]
  Kd: 290 nM
